# Ends that are not written are not given here. * marks the point of attachment. Biotin = O=C1N[C@H]2[C@H](CS[C@H]2CCCCC(=O)*)N1
# What was measured:
# full length Hsp90alpha [1] = molecular target: T1, full length Hsp90alpha (human, UniProt P07900 1-732); assay: competition ELISA, peptide inhibits the binding of recombinant survivin to Hsp90
# T1 construct: also called r-Hsp90; rHsp90
# [2] = molecular target: T2, GST-N-Hsp90 (amino acids 1-272 of SEQ ID NO:21) (human, UniProt O02705 1-273 (pig entry)); assay: ELISA, peptide immobilized at rising concentrations, Hsp90 N-terminal fragment added, detection with anti-Hsp90
# T2 construct: also called N-terminal domain of Hsp90; Hsp90 N-terminal fragment; not shown: glutathione S-transferase (GST) frame of vector pGex-4T3
# Experimental: (§1) ELISA experiments were performed by immobilizing recombinant Survivin (r-Survivin) ([…]) or recombinant Hsp90 (r-Hsp90) (10 μg/ml) on plastic microtiter wells (Immulon™-2, Dynatech Laboratories, Chantilly, Va.) using bicarbonate buffer, pH 9.5 (100 μl/well) for 18 hours at 4° C. Bound protein was blocked with 3% gelatin for 1 hour at 37° C., rinsed with washing buffer (TBS pH 7.4, 0.1% Tween™, 0.1% BSA) and incubated for 1 hour at 37° C. with different concentrations of a test protein to determine if the test protein bound the immobilized protein.
# (§2) FIGS. 24A and 24B identify the location of P31 peptide's binding site as the N-terminus domain of Hsp90. The generation of recombinant Hsp90 fragments of the N-terminus or C-terminus is described in Example 3. ELISA experiments were performed as described in Example 2, except the indicated increasing concentrations of the P31 peptide (squares; SEQ ID NO:19) or control P33 peptide (circles; SEQ ID NO:25) were immobilized on plastic microtiter plates and incubated with the indicated Hsp90 N-terminal and C-terminal fragments. After washing, binding of the individual Hsp90 fragments to the immobilized peptides was detected with an antibody to Hsp90. Antibody to the C-terminal and N-terminal fragments of Hsp90 were obtained from BD/Transduction Laboratories and Santa Cruz Biotechnology, Inc. (Santa Cruz, Calif.), respectively.
# [3] = molecular target: T3, GST-C-Hsp90 (amino acids 629-732 of SEQ ID NO:21) (human, UniProt A5A6K9 630-733 (Pan troglodytes entry)); assay: ELISA, peptide immobilized at rising concentrations, Hsp90 C-terminal fragment added, detection with anti-Hsp90
# T3 construct: not shown: glutathione S-transferase (GST) frame of vector pGex-4T3
# Experimental: as §1, §2
# [4] = molecular target: T4, GST-Hsp90 (amino acids 1-732) (human, UniProt P07900 1-732); assay: pull-down of 35S in vitro translated XIAP BIR2 with GST-Hsp90, autoradiography
# T4 construct: also called Sepharose-GST-Hsp90; GST fusion of full length Hsp90; not shown: glutathione S-transferase (GST) frame of vector pGex-4T3
# Description: (§3) The cDNAs for XIAP and XIAP Baculovirus IAP Repeats (BIR) domains (BIR1, Met 1 to Ser 123; BIR2, Arg 124 to Pro 260; and BIR3, Ser 261 to Gln 336) were obtained from retro-transcription (SuperScript™ First Strand Synthesis System for RT-PCR, Invitrogen) of RNA extracted from HeLa cells (TRI Reagent™, Molecular Research Center Inc.), amplified by PCR, and cloned in pcDNA3 vector (Invitrogen). pcDNA3-XIAP and pcDNA3-XIAP BIR domains were translated in vitro using the TNT™ Quick Coupled Transcription/Translation System (Promega) in the presence of ³⁵S labeled methionine (Amersham), and 2, 5, and 8 μl of the reaction were incubated with 10 μg GST or GST fusion proteins as described above.
# (§4) pcDNA3-XIAP and pcDNA3-XIAP BIR domains were translated in vitro as described in Example 4. […] GST-Hsp90 or GST was mixed with ³⁵S in vitro translated XIAP or its individual Baculovirus IAP Repeats: BIR1, BIR2, and BIR3. Reactions were centrifuged and proteins that associated with the pellet were detected by autoradiography.
# full length Hsp90alpha [5] = molecular target: T1, full length Hsp90alpha; assay: competition ELISA: peptide (20 µg/ml) preincubated with Hsp90, then added to immobilized full length Survivin (the competitor)
# Experimental: as §1
# ELISA experiments were performed essentially as in Example 2 with the following variations. 20 μg/ml of each recombinant Survivin peptide (expressed in E. coli) was preincubated with Hsp90 at 2.5 mg/ml for 16 hours at 4° C. After binding and blocking of full length Survivin to wells in a microtiter plate, the preincubated mixtures of Hsp90 and Survivin peptides were added to the wells and incubated for 1 hour at 37° C. Wells were washed, incubated with primary antibody, washed again, and bound antibody was quantified as described above. Each experiment was repeated three times and the standard deviation is shown. The twelve amino acid Survivin peptide including Lysine 79-Lysine 90 (K79-K90; SEQ ID NO:3) was an especially effective inhibitor of Hsp90-Survivin binding interactions.
# Hsp 27 = molecular target: T5, Hsp 27 (UniProt P04792 1-205); assay: affinity chromatography of Raji cell extracts on immobilized peptide, Western blot
# T5 construct: Endogenous protein of Raji cells
# Description: A Survivin Ile⁷⁴-Leu⁸⁷ peptide (SEQ ID NO:4) containing a binding site for Hsp90 was immobilized onto a Sulfolink™ Coupling Gel (Pierce, Rockport, Ill.), and used to fractionate Raji cell extracts. Proteins were identified in the flow trough (FT) or eluate (E) by Western blotting with the indicated antibodies. Hsp90 and Hsp70 clearly bound the Survivin peptide including residues Ile⁷⁴-Leu⁸⁷. The anti-Hsp70 antibodies were obtained from Abcam, Cambridge, Mass. (cat. No. ab6535).
# full length Hsp90alpha [6] = molecular target: T1, full length Hsp90alpha; assay: surface plasmon resonance, biotin peptide on streptavidin chip, r-Hsp90 injected
# Experimental: Wild type Survivin peptide 77 to 91 (SEQ ID NO:22) or the corresponding C84A mutant 77-91 peptide ([…]; SEQ ID NO:23) was synthesized with an N-terminal biotin and immobilized on streptavidin coated chips (SA5) purchased from Biacore Inc. (Piscataway, N.J.). Increasing concentrations (100 nM-10 μM) of purified r-Hsp90 suspended in 10 mM HEPES, 150 mM NaCl, 3 mM EDTA, 0.005% polysorbate-20, 1 mM DTT, were then injected in […] over the immobilized peptides. A constant flow rate of […] was maintained, and the dissociation phase was followed for 300 seconds. Surfaces were regenerated using […] of 1 M NaCl/50 mM NaOH after each dissociation phase. A new injection cycle was initiated only after 10 min post-regeneration to ensure complete removal of NaCl and NaOH. The collected data were analyzed using the Biaeval 3.0 software package from Biacore Inc.
# Sensorgrams (FIG. 10B) indicate binding of the Survivin peptides to Hsp90, measured by an increase in surface plasmon resonance during analyte flow over the chip surface, with the nonspecific signal from the biotin-only surface subtracted.
# full length Hsp90alpha [7] = molecular target: T1, full length Hsp90alpha; assay: ELISA, peptide immobilized, recombinant Hsp90 added, detection with anti-Hsp90 (n=2); no blank bar on the sheet
# Experimental: Indicated synthetic peptides from the Survivin core sequence Lys 79-Leu 87 (SEQ ID NO:24) were synthesized carrying single alanine substitutions at each indicated position (alanine scanning mutagenesis). Individual peptides were immobilized at indicated increasing concentrations on plastic microtiter plates, incubated with recombinant Hsp90, and binding to the various substrates was determined with an antibody to Hsp90 by ELISA and quantified by absorbance at OD₄₀₅. […] In contrast, no differences were observed between the wild type peptide sequence and alanine substitutions of the residues flanking this sequence, Lys 79, Ala 85, Phe 86, and Leu 87.
# [8] = molecular target: T4, GST-Hsp90 (amino acids 1-732); assay: pull-down of 35S in vitro translated XIAP BIR3 with GST-Hsp90, autoradiography
# Description: as §3, §4
# T5 sequence (P04792 whole entry): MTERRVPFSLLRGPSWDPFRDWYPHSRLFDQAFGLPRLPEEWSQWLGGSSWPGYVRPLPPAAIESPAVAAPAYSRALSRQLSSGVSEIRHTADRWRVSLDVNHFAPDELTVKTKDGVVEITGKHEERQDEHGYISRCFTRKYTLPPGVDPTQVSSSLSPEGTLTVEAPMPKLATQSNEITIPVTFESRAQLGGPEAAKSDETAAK
# T3 sequence (A5A6K9 630-733): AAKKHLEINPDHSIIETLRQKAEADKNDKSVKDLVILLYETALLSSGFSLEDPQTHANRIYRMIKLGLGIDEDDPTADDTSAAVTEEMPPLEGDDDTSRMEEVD
binder,measurement,setting,value
RQIKIWFQNRRMKWKKKHSSG [shorter cell permeable Survivin peptide (Antennapedia carrier sequence fused to Survivin K79-G83)],binding result,full length Hsp90alpha [1],binds
Biotin-RQIKIWFQNRRMKWKKKHSSGCAFL (also called Survivin cell permeable peptide) [P31 survivin peptide (Antennapedia carrier sequence fused to Survivin K79-L87)],binding result,full length Hsp90alpha [1],binds
same,binding result,[2],binds
same,binding result,[3],no binding (tested: 0.25 mg/ml)
"XIAP BIR2 fragment (Arg 124 to Pro 260) (other, human, UniProt P98170 124-260, looked up, range 124-260; 35S-labelled, in vitro translated) RDHFALDRPSETHADYLLRTGQVVDISDTIYPRNPAMYSEEARLKSFQNWPDYAHLTPRELASAGLYYTGIGDQVQCFCCGGKLKNWEPCDRAWSEHRRHFPNCFFVLGRNLNIRSESDAVSSDRNFPNSTNLPRNP",binding result,[4],no binding
KHSSGCAFLSVK (Called both synthetic and recombinant (expressed in E. coli) in the same paragraph; also called K79-K90) [Survivin peptide Lysine 79-Lysine 90],binding result,full length Hsp90alpha [5],binds
IDDHKKHSSGCAFL (Immobilized on Sulfolink Coupling Gel; also called Survivin peptide (Ile74-Leu87)) [Survivin Ile74-Leu87 peptide],binding result,Hsp 27,no binding
Biotin-HKKHSSGCAFLSVKK (Immobilized on streptavidin coated Biacore chips; also called wild type peptide) [wild type Survivin peptide 77 to 91],Kd,full length Hsp90alpha [6],83.8 nM
same,"off-rate, fold slower than the C84A peptide (SEQ ID NO:23)",full length Hsp90alpha [6],10 fold
Biotin-HKKHSSGAAFLSVKK (Immobilized on streptavidin coated Biacore chips; also called C84A peptide) [C84A mutant Survivin 77-91 peptide],binding result,full length Hsp90alpha [6],binds
"KHSSGCAFL (Synthetic, immobilized on plastic microtiter plates; also called Survivin peptide (K79-L87)) [Survivin core sequence peptide Lys 79-Leu 87]",binding result,full length Hsp90alpha [7],binds
KHSSGCAAL (also called F86A) [Survivin Lys 79-Leu 87 peptide with alanine substitution of Phe 86],binding result,full length Hsp90alpha [7],binds
KHSSGCAFA (also called L87A) [Survivin Lys 79-Leu 87 peptide with alanine substitution of Leu 87],binding result,full length Hsp90alpha [7],binds
AHSSGCAFL (also called K79A) [Survivin Lys 79-Leu 87 peptide with alanine substitution of Lys 79],binding result,full length Hsp90alpha [7],binds
"XIAP BIR3 fragment (Ser 261 to Gln 336) (other, human, UniProt P98170 261-336, looked up, range 261-336; 35S-labelled, in vitro translated) SMADYEARIFTFGTWIYSVNKEQLARAGFYALGEGDKVKCFHCGGGLTDWKPSEDPWEQHAKWYPGCKYLLEQKGQ",binding result,[8],no binding
